Laboratory results as given in article PMC6180428.

Molecular target: NagA-GFP-His6 fusion protein (N-acetylglucosamine-6-phosphate deacetylase from Mycobacterium smegmatis with C-terminal TEV-cleavable GFP-His6) (Mycobacterium smegmatis)
Test: SEC; Superdex 200 16/60, 20 mM Bis-Tris, 300 mM NaCl, 10% glycerol pH 8.0; oligomeric state from the elution profile

stoichiometry N: 2
Substance: NagA-GFP-His6 fusion protein (N-acetylglucosamine-6-phosphate deacetylase from Mycobacterium smegmatis with C-terminal TEV-cleavable GFP-His6) (enzyme)
